± gives the standard deviation of the averaged measurements.
B1: library; a variant is named by its letters at N, in order (parent)
chain: GCUGUCACCGAGAAACUGUGAAGUAUAUCUUAAACCUGGGCACUUAAAAGAUAUAUGGAGUUAGUAGUGCAACCUGCUCGGUCUGAUGAGUCCNNNNNNGGACGAAACAGC

How the values were obtained:
[1] = variants of: B1; test: normalized RNA/DNA level without ligand (relative to sTRSVctl = 100) (log10 (% of sTRSVctl)); HEK293T; ligand: cyclic di-GMP (c-di-GMP-II aptamer); higher = less ribozyme self-cleavage, higher mRNA level; settings: reporter: mCherry (pCS4076), ligand present: no
Summary of the method: (§1)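 RNA level was computed as RNA reads over DNA reads divided by a spiked-in non-cleaving sequence or by the top sequences, then scaled and log-transformed. Scaling was ×100 with log10, the top group was 25 sequences, and the threshold was ≥100 DNA reads. The reads came from HEK293T cells transfected at 4 µg per 6-well well with ribozyme switch library plasmids (mCherry, or eGFP in some ligand experiments). Total RNA was extracted with EDTA 72 h after transfection, with any ligand added 1 h before it.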

[2] = variants of: B1; test: normalized RNA/DNA level with ligand (relative to sTRSVctl = 100) (log10 (% of sTRSVctl)); HEK293T; ligand: cyclic di-GMP (c-di-GMP-II aptamer); ligand concentration (+) RNA-Seq: 1 mM; higher = less ribozyme self-cleavage, higher mRNA level; settings: reporter: mCherry (pCS4076), ligand present: yes
Summary of the method: as §1

Variant | normalized RNA/DNA level without ligand (log10) [1] | normalized RNA/DNA level with ligand (log10) [2]
CACGAG | 1.63 ± 0.028 | 1.81 ± 0.076
CAGAAU | 1.38 ± 0.13 | 1.53 ± 0.12
AUGUGA | 1.44 ± 0.082 | 1.65 ± 0.11
CAGGCU | 1.8 ± 0.012 | 1.9 ± 0.11
GAGGGG | 1.77 ± 0.056 | 1.86 ± 0.1
CAAUUA | 1.32 ± 0.1 | 1.53 ± 0.05
CUACGG | 1.8 ± 0.061 | 1.89 ± 0.08
CCUAUU | 1.56 ± 0.048 | 1.71 ± 0.097
AUCCUA | 1.61 ± 0.041 | 1.78 ± 0.083
CGUAGC | 1.73 ± 0.062 | 1.83 ± 0.055
GAUAGA | 1.46 ± 0.11 | 1.64 ± 0.094
GCAUUC | 1.423 ± 0.011 | 1.7 ± 0.17
CCUCUU | 1.63 ± 0.017 | 1.81 ± 0.15
AGGCGU | 1.609 ± 0.0044 | 1.76 ± 0.12
UUGAGA | 1.58 ± 0.071 | 1.77 ± 0.11
AACACC | 1.56 ± 0.007 | 1.73 ± 0.12
GACUCC | 1.77 ± 0.0029 | 1.89 ± 0.079
AAAGUG | 1.52 ± 0.099 | 1.67 ± 0.074
GGCGAU | 1.586 ± 0.014 | 1.72 ± 0.11
GGCGAC | 1.76 ± 0.093 | 1.88 ± 0.16
AGGGCG | 1.78 ± 0.0082 | 1.84 ± 0.11
GGUGUC | 1.66 ± 0.019 | 1.8 ± 0.1
AAAUCA | 1.595 ± 0.0024 | 1.77 ± 0.098
ACACCA | 1.59 ± 0.029 | 1.76 ± 0.11

Variant | normalized RNA/DNA level without ligand (log10) [1] | normalized RNA/DNA level with ligand (log10) [2]
GGGCGC | 1.84 ± 0.027 | 1.92 ± 0.091
CUAAAG | 1.64 ± 0.033 | 1.79 ± 0.055
UGCCAU | 1.694 ± 0.0071 | 1.81 ± 0.11
GAUUGC | 1.685 ± 0.0072 | 1.84 ± 0.12
AUUUUC | 1.74 ± 0.024 | 1.85 ± 0.092
CCAUCC | 1.81 ± 0.043 | 1.92 ± 0.092
ACACAU | 1.46 ± 0.06 | 1.67 ± 0.092
AUUAUU | 1.63 ± 0.042 | 1.79 ± 0.1
GGUUAA | 1.54 ± 0.11 | 1.67 ± 0.029
CGCUCG | 1.77 ± 0.077 | 1.88 ± 0.16
AUAGGC | 1.55 ± 0.023 | 1.76 ± 0.18
GAUCCC | 1.79 ± 0.027 | 1.89 ± 0.082
ACGGGC | 1.7 ± 0.073 | 1.88 ± 0.1
GUUUUA | 1.63 ± 0.032 | 1.82 ± 0.098
AGGCUA | 1.51 ± 0.084 | 1.65 ± 0.095
GAGCUC | 1.83 ± 0.052 | 1.91 ± 0.15
AUCACA | 1.64 ± 0.069 | 1.8 ± 0.062
GGCUAA | 1.55 ± 0.09 | 1.71 ± 0.14
UCGUGA | 1.47 ± 0.082 | 1.73 ± 0.09
GUGCGG | 1.86 ± 0.043 | 1.92 ± 0.08
GUAUCC | 1.73 ± 0.028 | 1.86 ± 0.13
CUGUUU | 1.575 ± 0.0091 | 1.72 ± 0.12
CCGAUU | 1.54 ± 0.052 | 1.73 ± 0.12
UACCGA | 1.56 ± 0.058 | 1.77 ± 0.068

Variant | normalized RNA/DNA level without ligand (log10) [1] | normalized RNA/DNA level with ligand (log10) [2]
ACUUAU | 1.55 ± 0.042 | 1.73 ± 0.074
UUUCAU | 1.72 ± 0.035 | 1.83 ± 0.12
CAAGGU | 1.64 ± 0.037 | 1.8 ± 0.1
CGCAAC | 1.62 ± 0.05 | 1.78 ± 0.12
ACGAAU | 1.31 ± 0.061 | 1.53 ± 0.079
CACUGA | 1.65 ± 0.039 | 1.77 ± 0.1
GACCCG | 1.7824 ± 0.00091 | 1.86 ± 0.11
GUGUGG | 1.74 ± 0.041 | 1.86 ± 0.11
AUCUUA | 1.61 ± 0.037 | 1.76 ± 0.12
GCUGAU | 1.55 ± 0.061 | 1.72 ± 0.087
UGAGCG | 1.8 ± 0.12 | 1.86 ± 0.16
GACUAA | 1.55 ± 0.045 | 1.74 ± 0.12
GCCUUA | 1.657 ± 0.0086 | 1.82 ± 0.1
CCGCGU | 1.69 ± 0.02 | 1.84 ± 0.17
CUACCU | 1.59 ± 0.032 | 1.77 ± 0.078
UAACUA | 1.688 ± 0.0017 | 1.82 ± 0.12
UGUCUC | 1.79 ± 0.0075 | 1.88 ± 0.087
UCUGAG | 1.66 ± 0.056 | 1.78 ± 0.098
GUUCAC | 1.737 ± 0.013 | 1.87 ± 0.09
AUGUUC | 1.681 ± 0.01 | 1.84 ± 0.1
CCACGG | 1.79 ± 0.058 | 1.89 ± 0.037
CGCCUG | 1.74 ± 0.036 | 1.82 ± 0.1
ACCAGG | 1.71 ± 0.037 | 1.77 ± 0.088
UGUCGU | 1.648 ± 0.0058 | 1.84 ± 0.12

Variant | normalized RNA/DNA level without ligand (log10) [1] | normalized RNA/DNA level with ligand (log10) [2]
UUGCGA | 1.778 ± 0.01 | 1.88 ± 0.076
CAUUGU | 1.78 ± 0.023 | 1.88 ± 0.046
AUACUG | 1.56 ± 0.049 | 1.73 ± 0.086
ACUUUC | 1.73 ± 0.042 | 1.85 ± 0.13
CUAUCA | 1.538 ± 0.014 | 1.74 ± 0.038
CAUUCU | 1.55 ± 0.07 | 1.73 ± 0.12
UCUACA | 1.71 ± 0.025 | 1.86 ± 0.16
AAUCGA | 1.49 ± 0.07 | 1.69 ± 0.094
UCCAUC | 1.7 ± 0.0059 | 1.8 ± 0.13
GUCUCU | 1.714 ± 0.011 | 1.86 ± 0.095
CUGACU | 1.52 ± 0.05 | 1.75 ± 0.11
UUCAGU | 1.75 ± 0.023 | 1.89 ± 0.069
UCGUUG | 1.61 ± 0.14 | 1.83 ± 0.096
CCCAUC | 1.728 ± 0.0037 | 1.84 ± 0.14
GAGUUU | 1.79 ± 0.031 | 1.87 ± 0.11
AGAGCA | 1.806 ± 0.017 | 1.87 ± 0.098
GUGCCA | 1.785 ± 0.015 | 1.9 ± 0.12
CUGUGG | 1.7 ± 0.048 | 1.85 ± 0.11
GAAGGU | 1.58 ± 0.08 | 1.77 ± 0.052
UCAUCU | 1.71 ± 0.052 | 1.9 ± 0.1
UAAGCA | 1.75 ± 0.018 | 1.87 ± 0.082
AGCUAC | 1.709 ± 0.017 | 1.81 ± 0.14
AGUACU | 1.7515 ± 2.5e-05 | 1.85 ± 0.089
AGGACG | 1.589 ± 0.0076 | 1.7 ± 0.1

Variant | normalized RNA/DNA level without ligand (log10) [1] | normalized RNA/DNA level with ligand (log10) [2]
UACGGC | 1.72 ± 0.033 | 1.84 ± 0.1
UCCACA | 1.74 ± 0.035 | 1.87 ± 0.12
UAGCGA | 1.61 ± 0.053 | 1.76 ± 0.095
ACUGUC | 1.63 ± 0.036 | 1.8 ± 0.15
CUCAAU | 1.55 ± 0.057 | 1.71 ± 0.082
CGGAAG | 1.745 ± 0.015 | 1.86 ± 0.1
UUCCUU | 1.73 ± 0.018 | 1.9 ± 0.099
GAUGUG | 1.71 ± 0.032 | 1.8 ± 0.1
UUUGUG | 1.72 ± 0.042 | 1.91 ± 0.05
GUAAUA | 1.59 ± 0.044 | 1.73 ± 0.045
UUGCUG | 1.7171 ± 3.9e-05 | 1.84 ± 0.14
GUUGCU | 1.7 ± 0.039 | 1.84 ± 0.1
GAUAAG | 1.54 ± 0.036 | 1.72 ± 0.1
AACCGA | 1.5 ± 0.1 | 1.61 ± 0.089
CAAUCG | 1.77 ± 0.039 | 1.89 ± 0.16
CCCGCC | 1.8 ± 0.13 | 1.92 ± 0.16
UAUGCA | 1.77 ± 0.061 | 1.87 ± 0.16
UAGUAG | 1.7 ± 0.036 | 1.84 ± 0.1
AGUGGU | 1.56 ± 0.089 | 1.759 ± 0.014
UGCGGG | 1.81 ± 0.045 | 1.92 ± 0.067

Reference: the supplement of paper PMC6757056
